Laboratory results reported in the supplement of paper PMC9876800.

Test system: peptide library, one residue held at a place counted from the S/T acceptor
Assay: relative phosphorylation of the sub-library (ratio to the mean residue at this position); higher = residue favoured
Conditions: human
How it was run: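 In 384-well plates, purified recombinant kinases (human or orthologue constructs) were incubated for 90 min under kinase-specific conditions with 50 μM biotinylated degenerate peptide sub-libraries and 50 μM ATP spiked with γ-32P-ATP. Each sub-library fixed a single residue at one position around a central Ser/Thr. Relative sub-library phosphorylation, measured by phosphorimaging and densitometry of streptavidin membrane spots, is given as a ratio to the mean residue at that position.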

Chain of HIPK4, construct: Full length (Q8NE63 whole entry, looked up): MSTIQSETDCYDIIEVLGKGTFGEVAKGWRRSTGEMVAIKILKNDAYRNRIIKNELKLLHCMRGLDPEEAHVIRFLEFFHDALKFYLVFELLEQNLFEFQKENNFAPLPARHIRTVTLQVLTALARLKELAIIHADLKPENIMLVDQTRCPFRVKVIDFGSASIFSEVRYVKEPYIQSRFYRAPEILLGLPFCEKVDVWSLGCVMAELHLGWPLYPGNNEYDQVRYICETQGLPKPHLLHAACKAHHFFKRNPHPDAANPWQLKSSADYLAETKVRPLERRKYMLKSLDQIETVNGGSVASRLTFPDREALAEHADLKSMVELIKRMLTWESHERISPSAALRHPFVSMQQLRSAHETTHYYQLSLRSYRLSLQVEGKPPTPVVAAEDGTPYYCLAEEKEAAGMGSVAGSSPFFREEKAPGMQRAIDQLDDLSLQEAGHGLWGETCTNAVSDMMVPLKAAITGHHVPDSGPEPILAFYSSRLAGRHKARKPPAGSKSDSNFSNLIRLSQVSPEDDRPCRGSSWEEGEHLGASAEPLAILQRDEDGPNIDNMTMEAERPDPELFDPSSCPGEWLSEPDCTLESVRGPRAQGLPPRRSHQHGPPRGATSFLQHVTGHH
Chain of ULK2, construct: aa1-478 (Q8IYT8 1-478, looked up): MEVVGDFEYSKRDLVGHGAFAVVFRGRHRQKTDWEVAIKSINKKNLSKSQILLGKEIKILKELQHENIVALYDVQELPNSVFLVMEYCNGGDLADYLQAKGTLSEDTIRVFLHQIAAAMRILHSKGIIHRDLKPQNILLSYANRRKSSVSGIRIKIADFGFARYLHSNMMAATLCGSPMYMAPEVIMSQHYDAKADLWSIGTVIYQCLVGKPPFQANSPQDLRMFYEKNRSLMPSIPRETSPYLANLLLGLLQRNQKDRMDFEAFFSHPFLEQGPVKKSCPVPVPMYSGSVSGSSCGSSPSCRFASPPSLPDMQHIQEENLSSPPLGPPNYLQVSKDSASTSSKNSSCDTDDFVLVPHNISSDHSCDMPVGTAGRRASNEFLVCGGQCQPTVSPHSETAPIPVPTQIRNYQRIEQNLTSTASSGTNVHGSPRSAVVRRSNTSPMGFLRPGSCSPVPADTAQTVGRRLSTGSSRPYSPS

HIPK4, construct: Full length (from UniProt Q8NE63)
relative phosphorylation
Conditions | at +1 | at +2 | at +3 | at +4 | at -1 | at -2 | at -3 | at -4 | at -5
A fixed | 0.793 | 1.38 | 1.1 | 1.63 | 1.15 | 2.12 | 0.851 | 0.995 | 0.967
D fixed | 0.277 | 0.726 | 0.71 | 0.68 | 0.67 | 0.463 | 0.711 | 0.697 | 0.886
E fixed | 0.34 | 0.618 | 0.505 | 0.578 | 0.693 | 0.354 | 0.477 | 0.702 | 0.719
F fixed | 0.339 | 1.46 | 1.08 | 1.11 | 0.616 | 0.478 | 0.453 | 0.816 | 1.13
G fixed | 0.586 | 1.58 | 1.49 | 1.07 | 1.03 | 1.07 | 0.877 | 1.27 | 1.26
H fixed | 0.671 | 1.13 | 0.857 | 0.716 | 0.991 | 0.507 | 0.649 | 0.803 | 1.08
I fixed | 0.427 | 0.675 | 0.857 | 1.31 | 0.589 | 0.837 | 0.807 | 0.82 | 0.841
K fixed | 1 | 0.686 | 0.565 | 0.63 | 1.72 | 0.808 | 0.926 | 0.864 | 0.833
L fixed | 0.508 | 0.696 | 0.816 | 1.64 | 0.783 | 0.916 | 0.669 | 1.12 | 0.968
M fixed | 0.403 | 0.805 | 0.812 | 1.53 | 0.836 | 0.602 | 0.661 | 0.895 | 0.735
N fixed | 1.15 | 0.806 | 0.752 | 0.59 | 0.984 | 0.875 | 0.803 | 0.639 | 0.855
P fixed | 5 | 2.12 | 3.82 | 1.33 | 2.03 | 4.06 | 1.14 | 2.12 | 1.15
Q fixed | 0.894 | 0.753 | 0.657 | 0.631 | 1.23 | 0.639 | 0.799 | 0.759 | 0.842
R fixed | 3.2 | 0.719 | 0.525 | 0.503 | 1.57 | 1.35 | 5.38 | 2.01 | 1.47
V fixed | 0.684 | 0.669 | 0.647 | 1.28 | 0.687 | 1.09 | 0.615 | 0.67 | 0.793
W fixed | 0.314 | 0.988 | 0.947 | 1 | 0.592 | 0.401 | 0.562 | 0.955 | 1.25
Y fixed | 0.415 | 1.2 | 0.857 | 0.785 | 0.836 | 0.434 | 0.626 | 0.867 | 1.22
pThr fixed | 0.405 | 0.51 | 0.71 | 0.616 | 0.417 | 0.585 | 0.547 | 0.844 | 0.67
pTyr fixed | 0.36 | 0.516 | 0.998 | 0.728 | 0.619 | 0.404 | 0.561 | 0.697 | 0.898

ULK2, construct: aa1-478 (from UniProt Q8IYT8)
relative phosphorylation
Conditions | at +1 | at +2 | at +3 | at +4 | at -1 | at -2 | at -3 | at -4 | at -5
A fixed | 0.728 | 0.707 | 0.906 | 0.969 | 1.08 | 1.11 | 0.982 | 1.31 | 1.38
D fixed | 0.31 | 0.349 | 0.794 | 0.811 | 1.04 | 1.1 | 0.736 | 1.16 | 1.29
E fixed | 0.365 | 0.348 | 0.775 | 0.701 | 0.927 | 1.05 | 0.599 | 0.953 | 1.08
F fixed | 1.4 | 0.962 | 0.824 | 0.652 | 0.63 | 1.14 | 0.873 | 0.616 | 0.704
G fixed | 0.631 | 0.582 | 1.39 | 1.28 | 1.09 | 1.12 | 1.24 | 1.47 | 1.23
H fixed | 0.927 | 1.62 | 1.19 | 1.17 | 0.923 | 1.31 | 0.774 | 1.05 | 1.11
I fixed | 1.49 | 1.03 | 0.872 | 0.796 | 0.637 | 0.728 | 0.739 | 0.685 | 0.679
K fixed | 0.863 | 1.09 | 1.51 | 1.43 | 1.53 | 0.703 | 0.63 | 0.968 | 1.21
L fixed | 1.07 | 0.851 | 0.858 | 0.831 | 0.788 | 0.843 | 1.54 | 0.738 | 0.748
M fixed | 1.78 | 1.08 | 0.867 | 0.938 | 1.11 | 1.11 | 2.88 | 0.946 | 0.705
N fixed | 0.665 | 0.848 | 0.895 | 1.02 | 1.12 | 1.18 | 1.12 | 1.24 | 1.16
P fixed | 0.167 | 0.441 | 0.832 | 1.28 | 0.567 | 0.492 | 0.774 | 1.19 | 1.01
Q fixed | 1.37 | 0.846 | 0.932 | 1.01 | 1.4 | 0.965 | 0.955 | 0.91 | 0.995
R fixed | 1.05 | 1.59 | 1.37 | 1.28 | 1.48 | 0.655 | 0.693 | 0.965 | 1.1
V fixed | 1.53 | 1.02 | 0.945 | 0.863 | 1.02 | 0.774 | 0.808 | 0.748 | 0.815
W fixed | 1.14 | 1.6 | 1.02 | 1.11 | 0.814 | 1.6 | 1.02 | 1.3 | 1.02
Y fixed | 1.51 | 2.04 | 1.02 | 0.854 | 0.85 | 1.12 | 0.652 | 0.761 | 0.754
pThr fixed | 0.659 | 0.378 | 0.594 | 0.749 | 0.557 | 0.6 | 0.707 | 0.833 | 0.782
pTyr fixed | 0.882 | 0.714 | 0.817 | 0.647 | 0.923 | 1.04 | 0.619 | 0.547 | 0.707
